The target in one assay is Neutrophil elastase (NE) (UniProt P08246). Briefly: cell-based or functional assay.
The target in a further assay is T1, neutrophil elastase (Homo sapiens, UniProt P08246).
T1 construct: purchased Enzo Life Sciences
T1 sequence (P08246 30-267): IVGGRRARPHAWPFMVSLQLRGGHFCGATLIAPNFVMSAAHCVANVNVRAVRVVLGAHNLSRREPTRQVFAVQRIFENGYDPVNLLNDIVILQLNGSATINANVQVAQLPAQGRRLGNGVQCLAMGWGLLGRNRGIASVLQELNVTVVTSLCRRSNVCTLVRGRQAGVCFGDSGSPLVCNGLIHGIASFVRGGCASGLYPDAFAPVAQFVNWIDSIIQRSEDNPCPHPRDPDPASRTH
Briefly: Neutrophil Elastase Colorimetric Drug Discovery Assay (Enzo Life Sciences), in vitro inhibition of neutrophil elastase. The class given is biochemical. As to the method:
In vitro studies were performed to test the ability of ulinastatin to inhibit neutrophil elastase (NE). The recombinant ulinastatin polypeptide (DM300) in this experiment is the UTIΔCS variant (SEQ ID NO: 2), which has an N-linked glycan at residue N45 and a non-natural O-linked glycan at residue T17 after recombinant preparation according to methods described in U.S. Provisional Application Nos. 63/108,733 and 63/021,938 (herein incorporated by reference).
Recombinant ulinastatin (DM300) was tested for inhibition of neutrophil elastase at 8 concentrations of DM300, with triplicate measurements per compound concentration. Neutrophil elastase activity was measured using the Neutrophil Elastase Colorimetric Drug Discovery Assay (Enzo Life Sciences) as per the manufacturer's protocol. 65 μl of assay buffer was placed into the required number of wells of a 96 well, clear, half area plate and equilibrated to 37° C. Inhibitor was added to a final reaction concentration at 100, 31.6, 10, 3.16, 1, 0.316, 0.1, 0.0316, or 0 μg/mL DM300 by addition of 20 μl of 5× concentration of DM300 diluted in assay buffer, followed by 10 μl of diluted neutrophil elastase. 100 μM elastatinal was also included as a control. After 15 minutes at 37° C., 5 μl of diluted substrate was added and the plate was read in SpectraMax m5 Microplate Reader equilibrated to 37° C. Linear portions of the data were selected, and the resulting data was analyzed using GraphPad Prism V.8.2.1.

For “Recombinant ulinastatin polypeptide (DM300), UTIΔCS variant (from UniProt P02760 206-352)”, in the assay with Neutrophil elastase (NE), the IC50 (inhibition of neutrophil elastase activity, colorimetric substrate assay) stood at 3.15 µg/mL; the IC50 (inhibition of neutrophil elastase activity, colorimetric substrate assay), molar conversion is 43.8 nM; the LogIC50 (best-fit value) is 0.499 log10(µg/ml).

B1: DM300: recombinant ulinastatin polypeptide, UTIΔCS variant (SEQ ID NO: 2, S10A), N-linked glycan at N45 and non-natural O-linked glycan at T17 (protein, listed as Homo sapiens)
chain: AVLPQEEEGAGGGQLVTEVTKKEDSCQLGYSAGPCMGMTSRYFYNGTSMACETFQYGGCMGNGNNFVTEKECLQTCRTVAACNLPIVRGPCRAFIQLWAFDAVKGKCVLFPYGGCQGNGNKFYSEKECREYCGVPGDGDEELLRFSN
modifications: N-glycan N45, O-glycan T17
A word on the IC50: it is the concentration at which inhibition is half-maximal. Read a low IC50 as inhibition by little substance. For B1, the “inhibitory activity in an in vitro assay of neutrophil elastase activity” value in the assay with neutrophil elastase (FIG. 1) is listed as “significant inhibitory activity”. In addition, in the assay with neutrophil elastase (best-fit value, log(inhibitor) vs. response, variable slope (four parameters)), the HillSlope is reported as −1.004. Further, the LogIC50 with neutrophil elastase (best-fit value, log(inhibitor) vs. response, variable slope (four parameters), concentration in μg/mL) is 0.4987. Also, in the assay with neutrophil elastase (converted from 3.153 μg/ml, assuming 1 Da=1 g/mol), the IC50 was about 43.8 nM.

(Values after patent US20220242932A1, “ULINASTATIN POLYPEPTIDES FOR TREATING DISEASES” (DiaMedica USA Inc., priority 2021, published 2022).)
